Patent US20230365675A1 (published 2023)

Experiments:
Assay in all cases: FACS, mutant CD33-GFP on 293FT cells
[1] = target: Mutant CD33-GFP M19 (348ATAI) on 293FT cells (UniProt P20138)
[2] = target: Mutant CD33-GFP M18 (353AAL) on 293FT cells (UniProt P20138)
[3] = target: Mutant CD33-GFP M16 (4889AII) on 293FT cells (UniProt P20138)
[4] = target: T1, Mutant CD33-GFP M6 (F43N) on 293FT cells (UniProt P20138 18-364)
T1 construct: whole, on cells; not shown: GFP fused to CD33

[5] = target: T2, Mutant CD33-GFP M9 (Y49, 50A) on 293FT cells (UniProt P20138 18-364)
T2 construct: whole, on cells; Read as the double mutant Y49A + Y50A; not shown: GFP fused to CD33

[6] = target: T3, Mutant CD33-GFP M7 (R98D) on 293FT cells (UniProt P20138 18-364)
T3 construct: whole, on cells; not shown: GFP fused to CD33

[7] = target: T4, Mutant CD33-GFP M8 (K52A) on 293FT cells (UniProt P20138 18-364)
T4 construct: whole, on cells; not shown: GFP fused to CD33

[8] = target: T5, Mutant CD33-GFP M10 (Y127A) on 293FT cells (UniProt P20138 18-364)
T5 construct: whole, on cells; not shown: GFP fused to CD33

[9] = target: T6, Mutant CD33-GFP JS25 (V25M) on 293FT cells (UniProt P20138 18-364)
T6 construct: whole, on cells; not shown: GFP fused to CD33

[10] = target: T7, Mutant CD33-GFP JS24 (Q24E) on 293FT cells (UniProt P20138 18-364)
T7 construct: whole, on cells; not shown: GFP fused to CD33

[11] = target: T8, Mutant CD33-GFP JS23 (L23N) on 293FT cells (UniProt P20138 18-364)
T8 construct: whole, on cells; not shown: GFP fused to CD33

[12] = target: T9, Mutant CD33-GFP JS28 (S28L) on 293FT cells (UniProt P20138 18-364)
T9 construct: whole, on cells; not shown: GFP fused to CD33

[13] = target: T10, Mutant CD33-GFP M2 (H45E) on 293FT cells (UniProt P20138 18-364)
T10 construct: whole, on cells; not shown: GFP fused to CD33

[14] = target: T11, Mutant CD33-GFP M3 (N99A) on 293FT cells (UniProt P20138 18-364)
T11 construct: whole, on cells; not shown: GFP fused to CD33

[15] = target: T12, Mutant CD33-GFP M1 (W22A) on 293FT cells (UniProt P20138 18-364)
T12 construct: whole, on cells; not shown: GFP fused to CD33

[16] = target: T13, Mutant CD33-GFP M5 (AEAD), quadruple mutant, on 293FT cells (UniProt P20138 18-364)
T13 construct: whole, on cells; substitutions left empty; not shown: GFP fused to CD33

[17] = target: T14, Mutant CD33-GFP M4 (R122D) on 293FT cells (UniProt P20138 18-364)
T14 construct: whole, on cells; not shown: GFP fused to CD33

[18] = target: T15, Mutant CD33-GFP M14 (E170R) on 293FT cells (UniProt P20138 18-364)
T15 construct: whole, on cells; not shown: GFP fused to CD33

[19] = target: T16, Mutant CD33-GFP M15 (Q171A) on 293FT cells (UniProt P20138 18-364)
T16 construct: whole, on cells; not shown: GFP fused to CD33

[20] = target: T17, Mutant CD33-GFP M12 (G88S) on 293FT cells (UniProt P20138 18-364)
T17 construct: whole, on cells; not shown: GFP fused to CD33

[21] = target: T18, Mutant CD33-GFP M13 (R91E) on 293FT cells (UniProt P20138 18-364)
T18 construct: whole, on cells; not shown: GFP fused to CD33

[22] = target: T19, Mutant CD33-GFP M11 (L78T) on 293FT cells (UniProt P20138 18-364)
T19 construct: whole, on cells; not shown: GFP fused to CD33
T19 sequence (P20138 18-364 L78T): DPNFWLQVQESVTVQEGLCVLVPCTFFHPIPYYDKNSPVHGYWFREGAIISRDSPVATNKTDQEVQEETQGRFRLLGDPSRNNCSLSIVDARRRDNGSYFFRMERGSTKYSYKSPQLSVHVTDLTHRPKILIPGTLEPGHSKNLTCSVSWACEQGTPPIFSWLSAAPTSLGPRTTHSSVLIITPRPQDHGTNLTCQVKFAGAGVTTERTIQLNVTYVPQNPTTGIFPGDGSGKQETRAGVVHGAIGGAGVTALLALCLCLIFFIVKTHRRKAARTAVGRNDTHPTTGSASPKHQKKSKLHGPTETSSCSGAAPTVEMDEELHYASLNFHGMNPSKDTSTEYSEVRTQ

T16 sequence (P20138 18-364 Q171A): as the sequence (P20138 18-364 L78T) above, with T61L, Q154A counted along it
T14 sequence (P20138 18-364 R122D): as the sequence (P20138 18-364 L78T) above, with T61L, R105D counted along it
T2 sequence (P20138 other isoform, or with tags, fused parts or gaps mutant): as the sequence (P20138 18-364 L78T) above, with Y32A, Y33A, T61L counted along it
T7 sequence (P20138 18-364 Q24E): as the sequence (P20138 18-364 L78T) above, with Q7E, T61L counted along it
T4 sequence (P20138 18-364 K52A): as the sequence (P20138 18-364 L78T) above, with K35A, T61L counted along it
T10 sequence (P20138 18-364 H45E): as the sequence (P20138 18-364 L78T) above, with H28E, T61L counted along it
T5 sequence (P20138 18-364 Y127A): as the sequence (P20138 18-364 L78T) above, with T61L, Y110A counted along it
T13 sequence (P20138 other isoform, or with tags, fused parts or gaps mutant): as the sequence (P20138 18-364 L78T) above, with W5A, H28E, T61L, N82A, R105D counted along it
T15 sequence (P20138 18-364 E170R): as the sequence (P20138 18-364 L78T) above, with T61L, E153R counted along it
T3 sequence (P20138 18-364 R98D): as the sequence (P20138 18-364 L78T) above, with T61L, R81D counted along it
T1 sequence (P20138 18-364 F43N): as the sequence (P20138 18-364 L78T) above, with F26N, T61L counted along it
T18 sequence (P20138 18-364 R91E): as the sequence (P20138 18-364 L78T) above, with T61L, R74E counted along it
T8 sequence (P20138 18-364 L23N): as the sequence (P20138 18-364 L78T) above, with L6N, T61L counted along it
T9 sequence (P20138 18-364 S28L): as the sequence (P20138 18-364 L78T) above, with S11L, T61L counted along it
T11 sequence (P20138 18-364 N99A): as the sequence (P20138 18-364 L78T) above, with T61L, N82A counted along it
T12 sequence (P20138 18-364 W22A): as the sequence (P20138 18-364 L78T) above, with W5A, T61L counted along it
T6 sequence (P20138 18-364 V25M): as the sequence (P20138 18-364 L78T) above, with V8M, T61L counted along it
T17 sequence (P20138 18-364 G88S): as the sequence (P20138 18-364 L78T) above, with T61L, G71S counted along it

FACS binding data [1]: 99.7
FACS binding data [2]: 99.4
FACS binding data [3]: 97.2
FACS binding data [4]: 99.4
FACS binding data [5]: 94.4
FACS binding data [6]: 98.4
FACS binding data [7]: 99.5
FACS binding data [8]: 92.5
FACS binding data [9]: 99.8
FACS binding data [10]: 72.5
FACS binding data [11]: 99.4
FACS binding data [12]: 99.9
FACS binding data [13]: 99.6
FACS binding data [14]: 99.5
FACS binding data [15]: 99.3
FACS binding data [16]: 0.26
FACS binding data [17]: 99.6
FACS binding data [18]: 98.2
FACS binding data [19]: 97.6
FACS binding data [20]: 98.3
FACS binding data [21]: 98.1
FACS binding data [22]: 86.8
B1: hu195 (antibody, V domains shown)
VH: QVQLVQSGAEVKKPGSSVKVSCKASGYTFTDYNMHWVRQAPGQGLEWIGYIYPYNGGTGYNCIKFKSKATITADESTNTAYMELSSLRSEDTAVYYCARGRPAMDYWGQGTLVTVSS
VL: DIQMTQSPSSLSASVGDRVTITCRASESVDNYGISFMNWFQQKPGKAPKLLIYAASNQGSGVPSRFSGSGSGTDFTLTISSLQPDDFATYYCQQSKEVPWTFGQGTKVEIK
